Measurements taken from patent US20170015742A1 (published 2017).
Substitutions are numbered along the chain they refer to. Numbers in names are those of the source. One block for each binder: values may come before it.

Assays:
[1] = target: recombinant human PDGF-BB (human, UniProt P01127 82-190); experiment: cell-based or functional assay
[2] = target: recombinant human VEGF165 (human, UniProt P15692 207-395); experiment: cell-based or functional assay
Cynomolgus monkey VEGF-A = target: T1, Cynomolgus monkey VEGF-A (cynomolgus monkey, UniProt P15692 207-395 (human entry)); experiment: affinity KD as tabulated in Table 69; method not given
T1 construct: also called cyno VEGF

Rat PDGF-BB = target: T2, Rat PDGF-BB (rat, UniProt Q05028 74-182); experiment: as above
T2 construct: Homodimer of B chains

Rabbit PDGF-BB = target: T3, Rabbit PDGF-BB (rabbit, UniProt Q05028 74-182 (rat entry)); experiment: as above
T3 construct: also called rab PDGF

[3] = target: T4, Cynomolgus monkey PDGF-BB (cynomolgus monkey, UniProt P01127 82-190 (human entry), limits assumed); experiment: as above
T4 construct: Homodimer of B chains; also called cyno PDGF; cynoPDGF-BB
T4 chain: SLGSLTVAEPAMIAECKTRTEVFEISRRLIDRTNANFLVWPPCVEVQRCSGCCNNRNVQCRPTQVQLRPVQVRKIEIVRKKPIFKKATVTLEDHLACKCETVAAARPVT

Mouse PDGF-BB = target: T5, Mouse PDGF-BB (mouse, UniProt P31240 82-190); experiment: as above
T5 construct: Homodimer of B chains; also called mo PDGF; mPDGF-BB

[4] = target: T6, Recombinant human FcγRIIb, 6xHis-tagged (human, UniProt P31994 46-217, limits assumed); experiment: Biacore SPR; His-tagged human FcγR captured on anti-6xHis antibody, DVD-Ig injected
T6 construct: Captured through its 6xHis tag; also called huFcRIIb
T6 sequence: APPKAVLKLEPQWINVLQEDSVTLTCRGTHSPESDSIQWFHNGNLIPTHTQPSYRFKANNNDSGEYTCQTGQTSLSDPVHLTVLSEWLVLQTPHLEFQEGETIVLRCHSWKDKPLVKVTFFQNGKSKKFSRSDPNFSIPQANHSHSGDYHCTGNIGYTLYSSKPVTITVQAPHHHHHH
Description: (§1) A CM5 chip (GE Healthcare, Pittsburgh, Pa.) with mouse anti-6×His antibodies (“6×His” disclosed as SEQ ID NO: 405) that were directly immobilized on the chip via amine coupling according to the GE Healthcare protocol to the density of 10000RU (all flow cells) was used for experiments. Human FcγRs were captured on flow cells 2, 3 and 4. Flow cell 1 was used as a reference surface. HBS-EP+ was used as the running buffer. […] The chip surfaces were regenerated with an injection of 10 mM glycine pH 1.5 at a flow rate of 100 μL/minute over all four flow cells after each cycle.

[5] = target: T7, Recombinant human FcγRIIa R131, 6xHis-tagged (human, UniProt P12318 36-218, limits assumed); experiment: as above
T7 construct: Captured through its 6xHis tag
T7 sequence: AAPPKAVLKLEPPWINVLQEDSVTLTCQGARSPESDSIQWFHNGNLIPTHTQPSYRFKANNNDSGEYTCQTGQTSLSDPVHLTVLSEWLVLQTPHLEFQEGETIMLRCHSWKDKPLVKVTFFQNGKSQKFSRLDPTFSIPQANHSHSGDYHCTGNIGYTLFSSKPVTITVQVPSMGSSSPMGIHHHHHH
Description: as §1

[6] = target: T8, Recombinant human FcγRIIa H131, 6xHis-tagged (human, UniProt P12318 36-218, limits assumed); experiment: as above
T8 construct: Captured through its 6xHis tag
T8 sequence: T7 sequence with R132H
Description: as §1

[7] = target: T9, Recombinant human FcγRIIIa F158, 6xHis-tagged (human, UniProt P08637 17-208, limits assumed); experiment: as above
T9 construct: Captured through its 6xHis tag
Description: as §1

Recombinant rat FcRn = target: T10, Recombinant rat FcRn (rat, UniProt P13599 23-298, limits assumed); experiment: Biacore SPR; DVD-Ig immobilised by amine coupling, recombinant FcRn injected; 1:1 binding fit
T10 construct: FcRn is normally a heterodimer with beta-2-microglobulin
T10 sequence (looked up) 1: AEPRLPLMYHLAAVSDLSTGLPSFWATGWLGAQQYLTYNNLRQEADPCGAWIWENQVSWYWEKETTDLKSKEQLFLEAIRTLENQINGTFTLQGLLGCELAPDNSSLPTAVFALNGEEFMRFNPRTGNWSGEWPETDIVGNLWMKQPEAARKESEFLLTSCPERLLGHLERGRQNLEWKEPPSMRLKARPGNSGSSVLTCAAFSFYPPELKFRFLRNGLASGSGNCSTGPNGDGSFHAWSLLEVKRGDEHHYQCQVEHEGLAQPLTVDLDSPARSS
T10 sequence (looked up) 2: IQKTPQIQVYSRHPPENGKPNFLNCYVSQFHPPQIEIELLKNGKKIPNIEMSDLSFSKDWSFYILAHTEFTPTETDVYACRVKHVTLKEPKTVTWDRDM
Description: Human, cynomolgus, mouse, rat and rabbit recombinant FcRns were injected over all the flow cells at a flow rate of 50 μL/minute for 1 minute at a concentrations range of from 2.7 to 6000 nM (three fold serial dilution), followed by a 2 minute dissociation time. The surfaces were regenerated with an injection of 10 mM HCl at 100 μL/minute for 2 seconds followed by an injection of HBS-EP+, pH 7.4, at a flow rate of 50 μL/minute for 30 seconds over all four flow cells. Samples were prepared and run in two running buffer systems, pH 6.0 MES-EP+, and pH […]. Recombinant human FcγRIIIa V158 and rat and mouse FcRn data were fitted to 1:1 kinetic model. Recombinant human FcγRIIa R131 and FcγRIIa H131, FcγRIIIa F158, and recombinant human, cynomolgus and rabbit FcRn binding data were fitted to a steady state affinity model. Biacore T200 Evaluation Software version 2.0 was used to fit all the data.

[8] = target: T11, Recombinant human FcγRIIIa V158, 6xHis-tagged (human, UniProt P08637 17-208, limits assumed); experiment: Biacore SPR; His-tagged huFcγRIIIa 158V captured on anti-6xHis antibody, DVD-Ig injected; steady state fit
T11 construct: Captured through its 6xHis tag; also called huFcRIIIa 158V
Description: as §1
The binding of DVD-Ig molecules to FcRn from various species and the binding of DVD-Ig molecules to various FcγRs were characterized by Biacore using the method described in Example 1.2.

rat PDGF-B (PR-1645048) = target: T12, rat PDGF-B (PR-1645048) (rat, UniProt Q05028 74-182); experiment: SPR (Biacore), DVD-Ig captured by anti-human Fc, antigen injected
T12 construct: Lot 2235300; also called rat PDGF-BB; ratPDGF-BB
Description: (§2) Unreacted moieties on the biosensor surface were blocked with ethanolamine. For kinetic analysis, rate equations derived from the 1:1 Langmuir binding model were fitted simultaneously to multiple antigen injections (using global fit analysis) with the use of Scrubber 2 (BioLogic Software), Biacore Biaevaluation 4.0.1 software or Biacore T100 Evaluation software. Purified antibodies or DVD-Ig molecules were diluted in running buffer for capture across goat anti-human Fc reaction surfaces. Antibodies or DVD-Ig molecules to be captured as a ligand (1 μg/ml) were injected over reaction matrices at a flow rate of 10 μl/minute. During the assay, all measurements were referenced against the capture surface alone (i.e., with no captured antibody or DVD-Ig molecule). […] The equilibrium dissociation constant KD (M) of the reaction between antibodies and the target antigen was then calculated from the kinetic rate constants by the following formula: KD=Koff/Kₒₙ. Binding was recorded as a function of time and kinetic rate constants were calculated. In this assay, on-rates as fast as 10⁶M⁻¹s⁻¹ and off-rates as slow as 10⁻⁶ s⁻¹ could be measured.

Human PDGF-BB, soluble = target: T13, Human PDGF-BB, soluble (human, UniProt P01127 82-190); experiment: SPR (Biacore), summary table
T13 construct: also called hPDGF-BB; soluble PDGF-BB
Description: as §2

Human VEGF-A 121 = target: T14, Human VEGF-A 121 (human, UniProt P15692 207-395); experiment: SPR (Biacore), summary table
T14 construct: also called hVEGF121
T14 sequence: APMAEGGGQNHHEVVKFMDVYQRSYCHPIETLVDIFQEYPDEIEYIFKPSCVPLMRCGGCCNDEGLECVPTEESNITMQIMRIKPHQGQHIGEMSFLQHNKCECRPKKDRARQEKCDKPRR
Description: as §2

Human VEGF-A 111 = target: T15, Human VEGF-A 111 (human, UniProt P15692-10 27-137); experiment: SPR (Biacore), summary table
T15 construct: not used because the names differ; also called hVEGF111
T15 sequence (looked up): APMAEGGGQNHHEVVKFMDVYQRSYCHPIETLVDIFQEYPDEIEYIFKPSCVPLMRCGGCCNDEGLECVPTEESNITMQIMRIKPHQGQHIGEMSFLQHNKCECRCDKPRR
Description: as §2

Human VEGF-A 165 = target: T16, Human VEGF-A 165 (human, UniProt P15692 207-395); experiment: SPR (Biacore), summary table
T16 construct: also called hVEGF165
Description: as §2

T12 sequence (Q05028 74-182 limits assumed): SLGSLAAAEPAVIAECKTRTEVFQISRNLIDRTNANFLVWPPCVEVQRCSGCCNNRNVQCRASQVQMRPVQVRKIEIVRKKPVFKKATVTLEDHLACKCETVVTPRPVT
T1 sequence (P15692 other isoform, or with tags, fused parts or gaps limits assumed): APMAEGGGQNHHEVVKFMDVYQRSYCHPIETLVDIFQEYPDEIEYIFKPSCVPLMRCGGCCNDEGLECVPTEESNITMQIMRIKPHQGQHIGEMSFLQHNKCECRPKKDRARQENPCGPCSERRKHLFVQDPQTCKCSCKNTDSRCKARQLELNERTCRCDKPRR
T2 sequence (Q05028 74-182 limits assumed): as the sequence (Q05028 74-182 limits assumed) above
T3 sequence (Q05028 74-182 limits assumed): as above
T9 sequence (P08637 other isoform, or with tags, fused parts or gaps limits assumed): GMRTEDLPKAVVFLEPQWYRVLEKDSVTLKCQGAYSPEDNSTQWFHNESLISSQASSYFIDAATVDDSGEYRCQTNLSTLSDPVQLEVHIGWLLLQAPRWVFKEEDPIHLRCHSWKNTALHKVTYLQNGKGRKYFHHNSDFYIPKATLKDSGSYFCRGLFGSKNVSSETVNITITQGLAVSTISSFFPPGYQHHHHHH
T5 sequence (P31240 82-190 limits assumed): as the sequence (Q05028 74-182 limits assumed) above, with V83I, V102I counted along it
T11 sequence (P08637 other isoform, or with tags, fused parts or gaps limits assumed): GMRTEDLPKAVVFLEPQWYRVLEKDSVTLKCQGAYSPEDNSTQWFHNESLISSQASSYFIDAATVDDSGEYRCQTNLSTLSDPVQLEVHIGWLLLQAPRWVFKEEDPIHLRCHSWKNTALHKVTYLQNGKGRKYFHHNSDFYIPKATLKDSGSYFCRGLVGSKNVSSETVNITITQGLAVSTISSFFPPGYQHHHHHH
Sequence of recombinant human PDGF-BB (P01127 82-190 limits assumed): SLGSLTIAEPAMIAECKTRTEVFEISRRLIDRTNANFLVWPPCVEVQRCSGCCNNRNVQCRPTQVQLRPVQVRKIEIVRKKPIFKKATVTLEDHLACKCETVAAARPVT
T13 sequence (P01127 82-190 limits assumed): as above

Potency IC50 (pM), Human PDGF-BB, cellular assay [1]: 34 pM
Potency IC50 (pM), Human VEGF-A, cellular assay [2]: 145 pM
B1: hu VEGF 9E10.1-GS-hu PDGF 33675 [hu IgG1/k] LALA H435A (PR-1610561) (bispecific antibody)
heavy: EIQLVQSGSELKKPGASVKVSCKASGYTFTNYGMYWVKQAPGQGLEYMGWIDTETGRPTYADDFKGRFVFSLDTSVSTAYLQISSLKAEDTAVYFCARWSGDTTGIRGPWFAYWGQGTLVTVSSGGGGSGGGGSEVTLRESGPALVKPTQTLTLTCTFSGFSLSTYGMGVGWIRQPPGKALEWLANIWWDDDKYYNPSLKNRLTISKDTSKNQVVLTMTNMDPVDTATYYCARIESSGPKYSFDYWGQGTMVTVSSASTKGPSVFPLAPSSKSTSGGTAALGCLVKDYFPEPVTVSWNSGALTSGVHTFPAVLQSSGLYSLSSVVTVPSSSLGTQTYICNVNHKPSNTKVDKKVEPKSCDKTHTCPPCPAPEAAGGPSVFLFPPKPKDTLMISRTPEVTCVVVDVSHEDPEVKFNWYVDGVEVHNAKTKPREEQYNSTYRVVSVLTVLHQDWLNGKEYKCKVSNKALPAPIEKTISKAKGQPREPQVYTLPPSREEMTKNQVSLTCLVKGFYPSDIAVEWESNGQPENNYKTTPPVLDSDGSFFLYSKLTVDKSRWQQGNVFSCSVMHEALHNAYTQKSLSLSPGK
light: DIRMTQSPSSLSASVGDRVTIECLASEDIYSDLAWYQQKPGKSPKLLIYNANGLQNGVPSRFSGSGSGTDYSLTISSLQPEDVATYFCQQYNYFPGTFGQGTKLEIKGGSGGGGSGGEIVLTQSPGTLSLSPGERATLSCRASSGSIWYSFVSWYQQKPGQAPRLLIYADDQRASGIPDRFSGSGSGTDFTLTISRLEPEDFAVYYCQSYGINIDVVFGGGTKVEIKRTVAAPSVFIFPPSDEQLKSGTASVVCLLNNFYPREAKVQWKVDNALQSGNSQESVTEQDSKDSTYSLSSTLTLSKADYEKHKVYACEVTHQGLSSPVTKSFNRGEC

Kd (Cynomolgus monkey VEGF-A): 0.065 nM
Kd (Rat PDGF-BB): 3 pM
Kd (Rabbit PDGF-BB): 3 pM
Kd [3]: 0.8 pM
Kd (Mouse PDGF-BB): 0.3 pM
binding result (Recombinant rat FcRn): no binding (tested: FcRn 2.7 to 6000 nM)
Kd [8]: 11 µM
B2: 9E10.1_GS_CL-33675 (PR-1610561), anti-VEGF-A/anti-PDGF-BB DVD-Ig, hu IgG1/k L234A L235A H435A (bispecific antibody)
heavy: B1 heavy
light: B1 light
notes: also called 9E10.1-GS-33675; hu VEGF 9E10.1-GS-hu PDGF 33675 [hu IgG1/k]; LALA H435A
binding result [4]: no binding (tested: DVD-Ig 31.25 to 4000 nM)
binding result [5]: no binding (tested: DVD-Ig 31.25 to 4000 nM)
binding result [6]: no binding (tested: DVD-Ig 31.25 to 4000 nM)
binding result [7]: no binding (tested: DVD-Ig 31.25 to 4000 nM)

Kd (rat PDGF-B (PR-1645048)): ≤ 5.2 pM
koff (rat PDGF-B (PR-1645048)): 5.2e-05 s⁻¹
kon (rat PDGF-B (PR-1645048)): ≥ 1e+07 M⁻¹ s⁻¹
Kd (Human PDGF-BB, soluble): 5 pM
Kd (Human VEGF-A 121): 0.23 nM
Kd (Human VEGF-A 111): 0.29 nM
Kd (Human VEGF-A 165): 0.065 nM
B3: 9E10.1-GS-33675 anti-VEGF/anti-PDGF DVD-Ig molecule (PR-1610561) (bispecific antibody, human IgG1, kappa, L234A L235A)
heavy: B1 heavy
light: B1 light
notes: DVD-Ig: outer domain hBEW-9E10.1 (VEGF), inner domain CL-33675 (PDGF), linkers GS-H10 / GS-L10(dR); human IgG1 L234A, L235A, H435A / kappa; Lot 2213329; also called hu VEGF 9E10.1-GS-hu PDGF 33675 [hu IgG1/k]; LALA H435A
